B1: CLDN18.2-DOTAGA (VHH)
VHH: EVQLVESGGGLVQPGGSLRLSCAASGSFFRIVAMGWYRQAPGSQRELVATITRGGSTYYADSVKGRFTISRDNAKNTLYLQMNSLRAEDTAVYYCNVRVEVPFMQPNDYWGQGTLVTVSS
modifications: DOTAGA chelator conjugated to the sdAb, residue not stated; DOL 1.23
notes: also called CLDN18.2 sdAb conjugated with DOTAGA
B2: CLDN18.2-L001 (VHH)
VHH: B1 VHH
modifications: functional linker L001 conjugated to the sdAb, residue not stated; DOL 1.13
notes: also called CLDN18.2 sdAb-linker L001 conjugate
B3: CLDN18.2-L002 (VHH)
VHH: B1 VHH
modifications: functional linker L002 conjugated to the sdAb, residue not stated; DOL 1.18
notes: also called CLDN18.2 sdAb-linker L002 conjugate
B4: CLDN18.2-L004 (VHH)
VHH: B1 VHH
modifications: functional linker L004 conjugated to the sdAb, residue not stated; DOL 1.37
notes: also called CLDN18.2 sdAb-linker L004 conjugate
B5: CLDN18.2-L007 (VHH)
VHH: B1 VHH
modifications: functional linker L007 conjugated to the sdAb, residue not stated; DOL 1.69
notes: also called CLDN18.2 sdAb-linker L007 conjugate; linker 007 conjugate
B6: CLDN18.2-L009 (VHH)
VHH: B1 VHH
modifications: functional linker L009 conjugated to the sdAb, residue not stated; DOL 1.77
notes: also called CLDN18.2 sdAb-linker L009 conjugate; linker 009 conjugate
B7: CLDN18.2-L010 (VHH)
VHH: B1 VHH
modifications: functional linker L010 conjugated to the sdAb, residue not stated; DOL 1.54
notes: also called CLDN18.2 sdAb-linker L010 conjugate; linker 010 conjugate
B8: CLDN18.2-L012 (VHH)
VHH: B1 VHH
modifications: functional linker L012 conjugated to the sdAb, residue not stated; DOL 1.65
notes: also called CLDN18.2 sdAb-linker L012 conjugate
B9: CLDN18.2-L007: Claudin 18.2 sdAb (SEQ ID NO. 1) conjugated with functional linker L007 (conjugate)
VHH: B1 VHH
modifications: functional linker L007 conjugated
B10: CLDN18.2-L008: Claudin 18.2 sdAb (SEQ ID NO. 1) conjugated with functional linker L008 (conjugate)
VHH: B1 VHH
modifications: functional linker L008 conjugated
B11: CLDN18.2-L009: Claudin 18.2 sdAb (SEQ ID NO. 1) conjugated with functional linker L009 (conjugate)
VHH: B1 VHH
modifications: functional linker L009 conjugated
B12: CLDN18.2-L010: Claudin 18.2 sdAb (SEQ ID NO. 1) conjugated with functional linker L010 (conjugate)
VHH: B1 VHH
modifications: functional linker L010 conjugated
B13: CLDN18.2-L011: Claudin 18.2 sdAb (SEQ ID NO. 1) conjugated with functional linker L011 (conjugate)
VHH: B1 VHH
modifications: functional linker L011 conjugated
B14: CLDN18.2-L012: Claudin 18.2 sdAb (SEQ ID NO. 1) conjugated with functional linker L012 (conjugate)
VHH: B1 VHH
modifications: functional linker L012 conjugated
B15: CLDN18.2-DOTAGA: Claudin 18.2 sdAb (SEQ ID NO. 1) conjugated with DOTAGA, used as control for chelating imaging radioisotope (conjugate)
VHH: B1 VHH
modifications: DOTAGA chelator conjugated
B16: CLDN18.2-L003: Claudin 18.2 sdAb (SEQ ID NO. 1) conjugated with functional linker L003 (conjugate)
VHH: B1 VHH
modifications: functional linker L003 conjugated
B17: CLDN18.2-L005: Claudin 18.2 sdAb (SEQ ID NO. 1) conjugated with functional linker L005 (conjugate)
VHH: B1 VHH
modifications: functional linker L005 conjugated
B18: CLDN18.2-L006: Claudin 18.2 sdAb (SEQ ID NO. 1) conjugated with functional linker L006 (conjugate)
VHH: B1 VHH
modifications: functional linker L006 conjugated
B19: FAP-DOTAGA: FAP sdAb (SEQ ID NO. 5) conjugated with DOTAGA, used as control for chelating imaging radioisotope (conjugate)
VHH: QVQLLESGGGLVQPGGSLRLSCAASGFGFGNSLMSWVRRAPGKGLEWVSTIYPRGSFTDYADSVKGRFTISRDNSRNTLYLQMNSLRAEDTAVYYCATGWGRSSDYDPPGQGTLVTVSS
modifications: DOTAGA chelator conjugated
B20: FAP-L007: FAP sdAb (SEQ ID NO. 5) conjugated with functional linker L007 (conjugate)
VHH: B19 VHH
modifications: functional linker L007 conjugated

Legend:
[1] = Pharmacokinetic study of CLDN18.2-linker conjugates (serum ELISA, NCA); format: in vivo, BALB/c mice; conditions: for blood circulation of the CLDN18.2 conjugates: FIG. 2, CLDN18.2 conjugate of the named linker compared to the control group; for AUCall / Cl / T1/2 / Vd: BALB/c mice, intravenous, about 1 mg/kg, serum, over 48 hours
Procedure: The in vivo pharmacokinetic profile of the CLDN18.2-linker conjugates was analyzed. Briefly, BALB/c mice were administered with the conjugates by intravenous injection at a dose of about 1 mg/kg. Then, whole blood of the animal was collected at different time points over 48 hours.
(§1) The whole blood was collected into a tube without anticoagulation and maintained at room temperature for more than 30 minutes, followed by centrifuge at approximately 5000 rpm at 4° C. for 5 minutes to obtain serum. Concentration of the conjugates in serum was then measured by ELISA using HRP-labeled goat anti-alpaca IgG VHH domain secondary antibody. The data was further analyzed using PK Solver software, and the […] (NCA) was used to evaluate the pharmacokinetic parameters, as shown in Table 7 and FIG. 2.

[2] = target: T1, human Claudin 18.2-VLP (human, UniProt P56856-2 1-261); assay: ELISA, plate coated with human Claudin 18.2-VLP, HRP anti-sdAb detection
T1 construct: also called CLDN18.2
T1 sequence (looked up): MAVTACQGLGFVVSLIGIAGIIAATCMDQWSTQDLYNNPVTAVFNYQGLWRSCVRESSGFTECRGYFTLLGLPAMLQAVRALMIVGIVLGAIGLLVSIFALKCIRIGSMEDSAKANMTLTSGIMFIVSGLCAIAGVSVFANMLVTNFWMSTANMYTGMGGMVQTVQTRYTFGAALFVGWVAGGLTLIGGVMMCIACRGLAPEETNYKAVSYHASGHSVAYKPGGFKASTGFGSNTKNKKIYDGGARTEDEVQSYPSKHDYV
Procedure: Binding affinities of the prepared conjugates with tumor antigen was evaluated by ELISA. […] On the next day, the plate was washed by 0.05% PBST and blocked by 10% StartingBlock buffer (Thermo, #37538) at room temperature for 1 hr. Then, 100 μL of serial diluted conjugate samples in 1% StartingBlock buffer was added to the plate. The plate was further incubated at room temperature for 2 hrs under shaking at 100 rpm and washed by 0.05% PBST. Then 100 μL 0.4 μg/mL HRP-conjugated anti-sdAb secondary antibody (Jackson, #128-035-232) was added and subject to 1 hr incubation at room temperature under shaking at 100 rpm. The plate was then washed by 0.05% PBST and developed using TMB solution (KPL, #5120-00820).

[3] = Pharmacokinetic study of FAP-linker conjugates (serum ELISA, NCA); format: in vivo, BALB/c mice; conditions: BALB/c mice, intravenous, about 1 mg/kg, serum, over 48 hours
Procedure: he in vivo pharmacokinetic profile of the FAP-linker conjugates was analyzed. Briefly, BALB/c mice were administered with the conjugates by intravenous injection at a dose of about 1 mg/kg. Then, whole blood of the animal was collected at different time periods over 48 hours.
as §1, with “centrifugated” for “centrifuge”, “8” for “7”, “3.” for “2.”

Molecule | EC50 [2] | AUCall [1] | Cl [1] | T1/2 [1] | Vd [1] | also measured
CCCCCCCCCCCCC(=O)NCCCCC(NC(=O)CNC(=O)CCC(C(=O)O)N1CCN(CC(=O)O)CCN(CC(=O)O)CCN(CC(=O)O)CC1)C(=O)NCc1ccc(N=C=S)cc1 (stereo not shown) [L011] |  |  |  |  |  | blood circulation of the CLDN18.2 conjugates [1]: significantly prolonged blood circulation
Cc1ccc(CCCC(=O)NCCCCC(NC(=O)CNC(=O)CCC(C(=O)O)N2CCN(CC(=O)O)CCN(CC(=O)O)CCN(CC(=O)O)CC2)C(=O)NCc2ccc(N=C=S)cc2)cc1 (stereo not shown) [L010] |  |  |  |  |  | blood circulation of the CLDN18.2 conjugates [1]: significantly prolonged blood circulation
B1 | 0.84 nM |  |  |  |  | 
B2 | 1.75 nM |  |  |  |  | 
B3 | 2.18 nM |  |  |  |  | 
B4 | 3.47 nM |  |  |  |  | 
B5 | 7.41 nM |  |  |  |  | 
B6 | 3.11 nM |  |  |  |  | 
B7 | 2.31 nM |  |  |  |  | 
B8 | 1.93 nM |  |  |  |  | 
B9 |  | 33100 ± 4920 ng·h/mL | 0.45 ± 0.05 mL/min/kg | 361 ± 73.8 min | 0.183 ± 0.014 L/kg | 
B10 |  | 1880 ± 177 ng·h/mL | 7.32 ± 0.367 mL/min/kg | 38.2 ± 4.02 min | 0.375 ± 0.043 L/kg | 
B11 |  | 148000 ± 5140 ng·h/mL | 0.083 ± 0 mL/min/kg | 1490 ± 323 min | 0.166 ± 0.023 L/kg | 
B12 |  | 14500 ± 149 ng·h/mL | 1.02 ± 0.033 mL/min/kg | 175 ± 7.02 min | 0.199 ± 0.012 L/kg | 
B13 |  | 15700 ± 816 ng·h/mL | 0.95 ± 0.017 mL/min/kg | 90 ± 10.1 min | 0.106 ± 0.008 L/kg | 
B14 |  | 2220 ± 223 ng·h/mL | 7.02 ± 0.7 mL/min/kg | 17.3 ± 1.14 min | 0.151 ± 0.025 L/kg | 
B15 |  | 1450 ± 149 ng·h/mL | 10.2 ± 1.2 mL/min/kg | 32.9 ± 2.52 min | 0.245 ± 0.032 L/kg | 
B16 |  | 460 ± 77 ng·h/mL | 30.2 ± 4.1 mL/min/kg | 11.2 ± 1.56 min | 0.431 ± 0.006 L/kg | 
B17 |  | 881 ± 118 ng·h/mL | 17.8 ± 2 mL/min/kg | 13.4 ± 1.56 min | 0.284 ± 0.017 L/kg | 
B18 |  | 650 ± 69 ng·h/mL | 22.7 ± 2.2 mL/min/kg | 13.5 ± 0.36 min | 0.408 ± 0.026 L/kg | 
B19 |  |  |  |  |  | AUCall [3]: 1560 ± 88 ng·h/mL; Cl [3]: 10.7 ± 0.633 mL/min/kg; T1/2 [3]: 29.2 ± 0.12 min; Vd [3]: 0.315 ± 0.020 L/kg
B20 |  |  |  |  |  | AUCall [3]: 45700 ± 3230 ng·h/mL; Cl [3]: 0.367 ± 0.033 mL/min/kg; T1/2 [3]: 486 ± 6.84 min; Vd [3]: 0.206 ± 0.017 L/kg

Source: US20260216366A1, “CONJUGATE AND USES THEREOF” (Full-Life Technologies UK Limited, priority 2022, published 2026)
